Measured values from patent US20220089698A1 (published 2022).
Where a chain is given by its changes, count along the chain named.

B1: 1.12.17-1 (antibody, human IgG1, kappa, V domains shown)
VH: QVQLLQSGAAVTKPGASVRVSCEASGYNIRDYFIHWVRQAPGQGLQWVGWINPKTGQPNNPRQFQGRVSLTRHASWDFDTFSFYMDLKALRSDDTAVYFCARQRSDYWDFDVWGSGTQVTVSS
VL: DIQMTQSPSSLSASVGDTVTITCQANGYLNWYQQRRGKAPKLLIYDGSKLERGVPSRFSGRRWGQEYNLTINNLQPEDIATYFCQVYEFFGPGTRLDLKR
B2: 1.14.17-1 (antibody, human IgG1, kappa, V domains shown)
VH: B1 VH with I34M, F83A
VL: B1 VL
B3: 1.13.17-1 (antibody, human IgG1, kappa, V domains shown)
VH: B1 VH with I34M
VL: B1 VL
B4: 1.1.17-1 (antibody, human IgG1, kappa)
heavy: QVQLLQSGAAVTKPGASVRVSCEASGYNIRDYFIHWWRQAPGQGLQWVGWINPKTGQPNNPRQFQGRVSLTRHASWDFDTFSFYMDLKALRSDDTAVYFCARQRSDYWDFDVWGSGTQVTVSSASTKGPSVFPLAPSSKSTSGGTAALGCLVKDYFPEPVTVSWNSGALTSGVHTFPAVLQSSGLYSLSSVVTVPSSSLGTQTYICNVNHKPSNTKVDKKVEPKSCDKTHTCPPCPAPELLAGPDVFLFPPKPKDTLMISRTPEVTCVVVDVSHEDPEVKFNWYVDGVEVHNAKTKPREEQYNSTYRVVSVLTVLHQDWLNGKEYKCKVSNKALPLPEEKTISKAKGQPREPQVYTLPPSREEMTKNQVSLTCLVKGFYPSDIAVEWESNGQPENNYKTTPPVLDSDGSFFLYSKLTVDKSRWQQGNVFSCSVLHEALHSHYTQKSLSLSPGK
light: DIQMTQSPSSLSASVGDTVTITCQANGYLNWYQQRRGKAPKLLIYDGSKLERGVPSRFSGRRWGQEYNLTINNLQPEDIATYFCQVYEFFGPGTRLDLKRTVAAPSVFIFPPSDEQLKSGTASVVCLLNNFYPREAKVQWKVDNALQSGNSQESVTEQDSKDSTYSLSSTLTLSKADYEKHKVYACEVTHQGLSSPVTKSFNRGEC
B5: 1.34.31-1 (antibody, human IgG1, kappa)
heavy: B4 heavy with L5V, A10E, T12K, E23K, S69T, S105T
light: B4 light with N68T, N72S, N73S, F90V, G91V, R95N
B6: 1.1.29-1 (antibody, human IgG1, kappa)
heavy: B4 heavy
light: B4 light with F90V, R95N, L96V, L98I
B7: 1.1.18-1 (antibody, human IgG1, kappa)
heavy: B4 heavy
light: B4 light with F90V, G91S
B8: 1.1.30-1 (antibody, human IgG1, kappa)
heavy: B4 heavy
light: B4 light with F90V, G91T, R95N, L96V, L98I
B9: 1.33.31-1 (antibody, human IgG1, kappa)
heavy: B4 heavy with L5V, A10E, T12K, E23K, S69T, V97T
light: B4 light with N68T, N72S, N73S, F90V, G91V, R95N
B10: 1.1.28-1 (antibody, human IgG1, kappa)
heavy: B4 heavy
light: B4 light with F90V, G91V, R95N, L96V, L98I
B11: 1.1.27-1 (antibody, human IgG1, kappa)
heavy: B4 heavy
light: B4 light with F90V, G91V, L96V, L98I
B12: 1.34.1-1 (antibody, human IgG1, kappa)
heavy: B4 heavy with L5V, A10E, T12K, E23K, S69T, S105T
light: B4 light with F90V, G91V
B13: 1.1.26-1 (antibody, human IgG1, kappa)
heavy: B4 heavy
light: B4 light with F90V, G91V, L98I
B14: 1.1.23-1 (antibody, human IgG1, kappa)
heavy: B4 heavy
light: B4 light with F90V, G91T, R95N
B15: 1.35.1-1 (antibody, human IgG1, kappa)
heavy: QVQLVQSGAEVKKPGASVRVSCKASGYNIRDYFMHWWRQAPGQGLQWVGWINPKTGQPNNPRQFQGRVTMTRHASWDFDTFSFYMDLSRLRSDDTATYFCARQRTDYWDFDVWGQGTMVTVSSASTKGPSVFPLAPSSKSTSGGTAALGCLVKDYFPEPVTVSWNSGALTSGVHTFPAVLQSSGLYSLSSVVTVPSSSLGTQTYICNVNHKPSNTKVDKKVEPKSCDKTHTCPPCPAPELLAGPDVFLFPPKPKDTLMISRTPEVTCVVVDVSHEDPEVKFNWYVDGVEVHNAKTKPREEQYNSTYRVVSVLTVLHQDWLNGKEYKCKVSNKALPLPEEKTISKAKGQPREPQVYTLPPSREEMTKNQVSLTCLVKGFYPSDIAVEWESNGQPENNYKTTPPVLDSDGSFFLYSKLTVDKSRWQQGNVFSCSVLHEALHSHYTQKSLSLSPGK
light: B4 light with F90V, G91V
B16: 1.13.15-1 (antibody, human IgG1, kappa)
heavy: B4 heavy with I34M, W37V
light: B4 light with G91V
B17: 1.1.21-1 (antibody, human IgG1, kappa)
heavy: B4 heavy
light: B4 light with F90V, R95N
B18: 1.32.1-1 (antibody, human IgG1, kappa)
heavy: B4 heavy with L5V, A10E, S105T
light: B4 light with F90V, G91V
B19: 1.31.1-1 (antibody, human IgG1, kappa)
heavy: B4 heavy with L5V, A10E, V97T
light: B4 light with F90V, G91V
B20: 1.1.20-1 (antibody, human IgG1, kappa)
heavy: B4 heavy
light: B4 light with F90V, G91V, R95N
B21: 1.31.31-1 (antibody, human IgG1, kappa)
heavy: B4 heavy with L5V, A10E, V97T
light: B4 light with N68T, N72S, N73S, F90V, G91V, R95N
B22: 1.36.1-1 (antibody, human IgG1, kappa)
heavy: B15 heavy with F83A
light: B4 light with F90V, G91V
B23: 1.1.24-1 (antibody, human IgG1, kappa)
heavy: B4 heavy
light: B4 light with F90V, G91V, L96V
B24: 1.33.1-1 (antibody, human IgG1, kappa)
heavy: B4 heavy with L5V, A10E, T12K, E23K, S69T, V97T
light: B4 light with F90V, G91V
B25: 1.1.22-1 (antibody, human IgG1, kappa)
heavy: B4 heavy
light: B4 light with F90V, G91S, R95N
B26: 1.12.15-1 (antibody, human IgG1, kappa)
heavy: B4 heavy with W37V
light: B4 light with G91V
B27: 1.35.31-1 (antibody, human IgG1, kappa)
heavy: B15 heavy
light: B4 light with N68T, N72S, N73S, F90V, G91V, R95N
B28: 1.1.25-1 (antibody, human IgG1, kappa)
heavy: B4 heavy
light: B4 light with F90V, G91V, R95N, L96V
B29: 1.1.19-1 (antibody, human IgG1, kappa)
heavy: B4 heavy
light: B4 light with F90V, G91T
B30: 1.1.31-1 (antibody, human IgG1, kappa)
heavy: B4 heavy
light: B4 light with N68T, N72S, N73S, F90V, G91V, R95N
B31: 1.32.31-1 (antibody, human IgG1, kappa)
heavy: B4 heavy with L5V, A10E, S105T
light: B4 light with N68T, N72S, N73S, F90V, G91V, R95N

molecular target: HIV gp120 Bal (HIV); experiment: single-point ELISA; further: test concentration or dose not given here

Question: How did the “ELISA (A450)” value turn out when B1 was run?
Answer: 0.9 A450

Question: For B2, which “ELISA (A450)” value is on record?
Answer: 0.89 A450

Question: For B3, which “ELISA (A450)” value is on record?
Answer: 1.02 A450

Question: B4 was tested. Which “ELISA (A450)” value did it give?
Answer: 1.02 A450

Question: For B5, which “ELISA (A450)” value is on record?
Answer: 0.91 A450

Question: For B6, which “ELISA (A450)” value is on record?
Answer: 0.91 A450

Question: With B7 as the binder, how does the “ELISA (A450)” value read?
Answer: 0.92 A450

Question: Which “ELISA (A450)” value does the source give for B8 here?
Answer: 0.9 A450

Question: How did the “ELISA (A450)” value turn out when B9 was run?
Answer: 0.92 A450

Question: Which “ELISA (A450)” value does the source give for B10 here?
Answer: 0.98 A450

Question: For B11, which “ELISA (A450)” value is on record?
Answer: 0.97 A450

Question: With B12 as the binder, how does the “ELISA (A450)” value read?
Answer: 0.83 A450

Question: How did the “ELISA (A450)” value turn out when B13 was run?
Answer: 0.96 A450

Question: With B14 as the binder, how does the “ELISA (A450)” value read?
Answer: 0.9 A450

Question: With B15 as the binder, how does the “ELISA (A450)” value read?
Answer: 0.84 A450

Question: With B16 as the binder, how does the “ELISA (A450)” value read?
Answer: 0.7 A450

Question: How did the “ELISA (A450)” value turn out when B17 was run?
Answer: 0.98 A450

Question: With B18 as the binder, how does the “ELISA (A450)” value read?
Answer: 0.93 A450

Question: B19 was tested. Which “ELISA (A450)” value did it give?
Answer: 0.82 A450

Question: B20 was tested. Which “ELISA (A450)” value did it give?
Answer: 0.94 A450

Question: With B21 as the binder, how does the “ELISA (A450)” value read?
Answer: 0.98 A450

Question: With B22 as the binder, how does the “ELISA (A450)” value read?
Answer: 1.13 A450

Question: With B23 as the binder, how does the “ELISA (A450)” value read?
Answer: 0.88 A450

Question: For B24, which “ELISA (A450)” value is on record?
Answer: 0.88 A450

Question: Which “ELISA (A450)” value does the source give for B25 here?
Answer: 0.88 A450

Question: For B26, which “ELISA (A450)” value is on record?
Answer: 0.69 A450

Question: With B27 as the binder, how does the “ELISA (A450)” value read?
Answer: 1.05 A450

Question: With B28 as the binder, how does the “ELISA (A450)” value read?
Answer: 0.9 A450

Question: How did the “ELISA (A450)” value turn out when B29 was run?
Answer: 1.03 A450

Question: B30 was tested. Which “ELISA (A450)” value did it give?
Answer: 0.87 A450

Question: How did the “ELISA (A450)” value turn out when B31 was run?
Answer: 0.95 A450

molecular target: HIV gp120 CAAN (HIV); experiment: single-point ELISA; further: test concentration or dose not given here

Question: B1 was tested. Which “ELISA (A450)” value did it give?
Answer: 0.84 A450

Question: B2 was tested. Which “ELISA (A450)” value did it give?
Answer: 0.43 A450

Question: With B3 as the binder, how does the “ELISA (A450)” value read?
Answer: 0.78 A450

Question: With B4 as the binder, how does the “ELISA (A450)” value read?
Answer: 0.9 A450

Question: Which “ELISA (A450)” value does the source give for B5 here?
Answer: 0.92 A450

Question: For B6, which “ELISA (A450)” value is on record?
Answer: 1.01 A450

Question: For B7, which “ELISA (A450)” value is on record?
Answer: 0.92 A450

Question: B8 was tested. Which “ELISA (A450)” value did it give?
Answer: 0.86 A450

Question: How did the “ELISA (A450)” value turn out when B9 was run?
Answer: 1.18 A450

Question: Which “ELISA (A450)” value does the source give for B10 here?
Answer: 0.93 A450

Question: B11 was tested. Which “ELISA (A450)” value did it give?
Answer: 0.99 A450

Question: B12 was tested. Which “ELISA (A450)” value did it give?
Answer: 0.9 A450

Question: How did the “ELISA (A450)” value turn out when B13 was run?
Answer: 1.07 A450

Question: How did the “ELISA (A450)” value turn out when B14 was run?
Answer: 0.95 A450

Question: Which “ELISA (A450)” value does the source give for B15 here?
Answer: 0.87 A450

Question: Which “ELISA (A450)” value does the source give for B16 here?
Answer: 0.6 A450

Question: With B17 as the binder, how does the “ELISA (A450)” value read?
Answer: 0.99 A450

Question: With B18 as the binder, how does the “ELISA (A450)” value read?
Answer: 0.83 A450

Question: With B19 as the binder, how does the “ELISA (A450)” value read?
Answer: 0.92 A450

Question: For B20, which “ELISA (A450)” value is on record?
Answer: 0.95 A450

Question: B21 was tested. Which “ELISA (A450)” value did it give?
Answer: 1.02 A450

Question: How did the “ELISA (A450)” value turn out when B22 was run?
Answer: 0.75 A450

Question: B23 was tested. Which “ELISA (A450)” value did it give?
Answer: 0.98 A450

Question: Which “ELISA (A450)” value does the source give for B24 here?
Answer: 0.98 A450

Question: B25 was tested. Which “ELISA (A450)” value did it give?
Answer: 1.02 A450

Question: For B26, which “ELISA (A450)” value is on record?
Answer: 0.63 A450

Question: With B27 as the binder, how does the “ELISA (A450)” value read?
Answer: 0.99 A450

Question: How did the “ELISA (A450)” value turn out when B28 was run?
Answer: 0.92 A450

Question: With B29 as the binder, how does the “ELISA (A450)” value read?
Answer: 1.05 A450

Question: Which “ELISA (A450)” value does the source give for B30 here?
Answer: 0.96 A450

Question: For B31, which “ELISA (A450)” value is on record?
Answer: 0.9 A450
